Key:
[1] = Stability and reconstitution of nanocluster solutions (urea/urease method); type: physicochemical; conditions: in the original volume of water; clear solution, nanocluster size unchanged
Description: Nanoclusters were prepared by the urea/urease method, as discussed above and as known in the art (Holt, C., Wahlgren, N. M. & Drakenberg, T. (1996). Ability of a beta-casein phosphopeptide to modulate the precipitation of calcium phosphate by forming amorphous dicalcium phosphate nanoclusters. Biochemical Journal 314, 1035-1039) but wherein the phosphopeptide was provided by either the OPNmix, discussed above, or fractions from the gel filtration separation. Typically, an OPNmix sample (25 mg) was dissolved in 1 ml of water and dialysed overnight against 500 ml of 1 mM EDTA followed by exhaustive dialysis against deionised water to remove Ca ions. The Ca-free peptides were recovered by freeze drying.
An initial under-saturated solution of salts at pH 5 with the composition 22 mM Ca(NO3)2, 20 mM KH2PO4, 36 mM KNO3 and 1.5 mM NaN3 (Mg-free Buffer A) was used to dissolve the peptide. Sufficient urea (0-30 mM) was added from a stock solution of 200 mM to give the desired final pH after hydrolysis with 2 units of urease from Canavalia ensiformis (Calbiochem product no. 666133). These conditions allowed the pH to rise to within 0.004 units of the target value within a few minutes. […]

[2] = SAXS of free OPN and OPN 1-149 (Guinier, worm-like chain model); type: physicochemical; conditions: free peptide, 5-15 mg ml^−1, average of three determinations
Description: In a SAXS experiment, wherein measurements were made on station 2.1 at the CCLRC Daresbury Laboratory, the normalised scattered intensity I(q) was measured. For a dispersion of isotropic, monodisperse particles, I(q) is related to the inter-particle structure factor, S(q) and the particle scattering factor P(q) by
where N is the number of particles of mean excess scattering length density over the solvent Δ ρp, volume Vp and mass M. The scattering wave vector is q=4π sin θ/λo, where θ is half the scattering angle and λo is the wavelength of the X-rays. In a dilute solution where S(q)=1 and a fraction α′ of the peptide chains have formed a polydisperse distribution of nanoclusters, equation (22) becomes
The molar volumes of the unphosphorylated residues were taken from Jacrot and Zaccai (Jacrot, B. & Zaccai, G. (1981). Determination of Molecular-Weight by Neutron-Scattering. Biopolymers 20, 2413-2426). The molar volume of ortho-L-phosphoserine was calculated from the unit cell volume of the amino acid, as determined by Sundaralingam (Sundaralingam, M. & Putkey, E. F. (1970). Molecular structures of amino acids and peptides. II. A redetermination of the crystal structure of L-O-serine phosphate. A very short phosphate-carboxyl hydrogen bond. Acta Crystallographica B26, 790-800) and 11 Å^3 subtracted to give the residue volume of 168.7 Å^3. The difference in residue volumes of serine and phosphoserine was then used to calculate a residue volume for phosphothreonine of 191.7 Å^3. The X-ray forward scattering amplitudes of the residues were calculated from the elemental compositions using atomic scattering factors. For OPN 16P 1-149 and OPN 28P 1-262, the scattering length densities in units of […] were calculated to be 12.56 and 12.48, respectively. For the nanoclusters prepared with OPN 16P 1-149 it was assumed that the phosphate moieties of the 10 phosphorylated residues found in the three PCs, were assigned to the core, giving ρshell=12.40×10^10 cm^−2. For the core, a hydrated CaP with the composition given by equation (2) gave ρcore=19.1×10^10 cm^−2. Radii of gyration of the whole protein and N-terminal polypeptide were independent of concentration in the range 5-15 mg ml^−1. For OPN the average of three determinations by the Guinier method was 5.50±0.17 nm and the corresponding value for OPN 1-149 was 2.17±0.24 nm. For OPN with 262 residues, equation (28) predicts a radius of gyration of 5.38 nm and for the N-terminal plasmin peptide of 149 residues, the predicted value is 3.84 nm.
Random-coil behavior and the dimensions of chemically unfolded proteins. Proceedings of the National Academy of Sciences of the United States of America 101, 12491-12496). […]

## OPN 1-149: N-terminal osteopontin phosphopeptide fragment from bovine milk, probably formed by plasmin; gel filtration fraction F3a
[1]
  dissolution of freeze-dried nanocluster powder: dissolve virtually instantly
[2]
  radius of gyration by the Guinier method: 2.17±0.24 nm

— patent US20110117206A1, “PHOSPHOPEPTIDES AND USE OF THE SAME” (PLANT BIOSCIENCE LIMITED, priority 2008, published 2011)
